The record followed here is article PMC5736527, “JUNGBRUNNEN1 Confers Drought Tolerance Downstream of the HD-Zip I Transcription Factor AtHB13”.

The data set concerns the target T1, AtHB13-GST (Arabidopsis thaliana, UniProt Q8LC03 1-294).
T1 sequence: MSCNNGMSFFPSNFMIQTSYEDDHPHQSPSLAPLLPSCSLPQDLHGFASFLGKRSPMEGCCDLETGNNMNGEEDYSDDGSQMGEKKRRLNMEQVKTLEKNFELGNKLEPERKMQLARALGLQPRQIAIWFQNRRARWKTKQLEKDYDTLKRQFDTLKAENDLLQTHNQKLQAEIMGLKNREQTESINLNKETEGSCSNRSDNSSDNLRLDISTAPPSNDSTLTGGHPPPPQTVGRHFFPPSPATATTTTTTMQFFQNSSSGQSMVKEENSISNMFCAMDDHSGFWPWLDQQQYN
Description: EMSA; 200x unlabeled same-sequence competitor also run (lane 3); EMSA as in Wu et al. 2012, Odyssey Infrared EMSA kit (LI-COR); buffer, salt, pH and temperature not stated. The following applies: protein: recombinant; tags: GST (pDEST24, C-terminal fusion); chain copies: 2; label: 5'-DY682; blunt. On the technique in general: A gel shift assay detects complexes by their altered migration in electrophoresis.

B1: JUB1 promoter 40-bp fragment (AtHB13BS-L) (dsDNA)
DNA 1: CTATAAAATTAGTTGCAATAAATGATTTAATTATTTTCCG
DNA 2: CGGAAAATAATTAAATCATTTATTGCAACTAATTTTATAG
B1: the binding result is listed as “binds”.
